The source of these data is EP4810515A1 (Shanghai Haiju Biological Technology Co., Ltd., dated 2026).

Test [1] addresses T1, human GDF15 recombinant protein (ACRO, GD5-H5149) (human, UniProt Q99988 197-308).
T1 sequence (looked up): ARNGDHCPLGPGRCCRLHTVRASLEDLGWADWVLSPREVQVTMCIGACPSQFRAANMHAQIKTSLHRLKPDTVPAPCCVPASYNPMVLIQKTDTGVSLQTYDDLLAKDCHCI
Briefly: cell-based or functional assay.

Test [2] deals with T2, GDF15 protein (R&D, 8146-GD) (UniProt Q99988 197-308).
T2 construct: analyte of the SPR assay
T2 sequence (looked up): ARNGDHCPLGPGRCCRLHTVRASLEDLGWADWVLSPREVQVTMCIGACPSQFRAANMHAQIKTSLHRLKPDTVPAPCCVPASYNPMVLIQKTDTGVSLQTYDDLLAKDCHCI
The experiment in a line: SPR Biacore T200, antibody captured by anti-hFc on CM5, GDF15 as analyte, 1:1 model. Background: In SPR one partner is held on a chip, and binding of the other changes the refractive index at the surface.

B1: G2-H1-hz2-hIgG1(LALAGA, -K) (antibody, V domains shown)
VH: QVQLQESGPGLVKPSETLSLTCTFSGFSLSTYGIGVGWIRQPPGKGLEWIAHIWWNNNKYFNTALKSRLTISKDTSKNQVSLKLSSVTAADTAVYYCARMGYDIMDYWGQGTLVTVSS
VL: DIVMTQSPSSLSTSVGDRVTITCKASQDVNTAVAWYQQKPGKSPKFLIYSSSYRYTGVPDRFSGSGSGTDFTFTISSVQPEDFAVYYCQQHYSTPWTFGGGTKVEIKR
notes: humanized from G2-CH1
Consider B1, for which the “IC50, reporter gene cell strain (GFRAL/RET)” value (“IC50 … (GFRAL/RET)” for short) in test [1] stood at 80 pM. In test [2], the affinity, expressed as Kd, was 0.0134 nM; the koff (in general, the first-order rate constant of dissociation) was found to be 0.000192 s⁻¹; the kon (in general, the rate constant with which the complex forms) stood at 1.43e+07 M⁻¹ s⁻¹.

B2: G2-H1-hz8-hIgG1(LALAGA, -K) (antibody, V domains shown)
VH: QVTLQESGPGLVKPSETLSLTCSFSGFSLSTYGIGVGWIRQPPGKGLEWLAHIWWNNNKYFNTALKSRLTISKDTSKNQVSLKLSSVTAADTATYYCARMGYDIMDYWGQGTSVTVSS
VL: DIVMTQSPATLSTSPGERVTISCKASQDVNTAVAWYQQKPGQSPRFLIYSSSYRYTGVPDRFSGSGSGTDFTFTISSVQSEDFAVYYCQQHYSTPWTFGGGTKVEIKR
notes: humanized from G2-CH1
Turning to B2, in test [1], the “IC50 … (GFRAL/RET)” value came to 62 pM. In addition, in test [2], the affinity, expressed as Kd, was 0.0178 nM; the off-rate constant (koff) is 0.000273 s⁻¹; the kon came to 1.53e+07 M⁻¹ s⁻¹.

B3: G2-H1-hz13-hIgG1(LALAGA, -K) (antibody, V domains shown)
VH: QVTLLESGGGLVQPGGSLRLSCSFSGFSLSTYGIGVGWIRQAPGKGLEWLAHIWWNNNKYFNTALKSRLTISKDTSKNTVYLQMNSVRAEDTAVYYCARMGYDIMDYWGQGTTVTVSS
VL: DIQMTQSPSSLSTSVGDRVTITCKASQDVNTAVAWYQQKPGKAPKFLIYSSSYRYTGVPDRFSGSGSGTDFTFTISSLQPEDFAVYYCQQHYSTPWTFGQGTKVEIKR
notes: humanized from G2-CH1
With B3, in test [1], the “IC50 … (GFRAL/RET)” value came to 62 pM. In test [2], the affinity, expressed as Kd, was 0.0211 nM; the koff turned out to be 0.000297 s⁻¹; the kon stood at 1.41e+07 M⁻¹ s⁻¹.

B4: G2-H1-hz1-hIgG1(LALAGA, -K) (antibody, V domains shown)
VH: QVQLQESGPGLVKPSETLSLTCTFSGFSLSTYGIGVGWIRQPPGKGLEWIAHIWWNNNKYFNTALKSRLTISKDTSKNQVSLKLSSVTAADTAVYYCARMGYDIMDYWGQGTLVTVSS
VL: DIQMTQSPSSLSTSVGDRVTITCKASQDVNTAVAWYQQKPGKAPKFLIYSSSYRYTGVPDRFSGSGSGTDFTFTISSLQPEDFAVYYCQQHYSTPWTFGQGTKVEIKR
notes: humanized from G2-CH1
For the molecule B4, the “IC50 … (GFRAL/RET)” value in test [1] was determined as 63 pM. Further, in test [2], binding was characterised by a dissociation constant (Kd) of 0.0105 nM, the koff amounted to 0.000146 s⁻¹ and the kon was 1.39e+07 M⁻¹ s⁻¹.

B5: G2-H1-hz4-hIgG1(LALAGA, -K) (antibody, V domains shown)
VH: QVQLQESGPGLVKPSETLSLTCTFSGFSLSTYGIGVGWIRQPPGKGLEWIAHIWWNNNKYFNTALKSRLTISKDTSKNQVSLKLSSVTAADTAVYYCARMGYDIMDYWGQGTLVTVSS
VL: DIVMTQSPATLSTSPGERVTISCKASQDVNTAVAWYQQKPGQSPRFLIYSSSYRYTGVPDRFSGSGSGTDFTFTISSVQSEDFAVYYCQQHYSTPWTFGGGTKVEIKR
notes: humanized from G2-CH1
As for B5, in test [1], the “IC50 … (GFRAL/RET)” value was 71 pM. Also, in test [2], binding was put at a Kd of 0.00993 nM, the koff came to 0.000183 s⁻¹ and the kon was 1.84e+07 M⁻¹ s⁻¹.

B6: G2-H1-hz6-hIgG1(LALAGA, -K) (antibody, V domains shown)
VH: QVTLQESGPGLVKPSETLSLTCSFSGFSLSTYGIGVGWIRQPPGKGLEWLAHIWWNNNKYFNTALKSRLTISKDTSKNQVSLKLSSVTAADTATYYCARMGYDIMDYWGQGTSVTVSS
VL: DIVMTQSPSSLSTSVGDRVTITCKASQDVNTAVAWYQQKPGKSPKFLIYSSSYRYTGVPDRFSGSGSGTDFTFTISSVQPEDFAVYYCQQHYSTPWTFGGGTKVEIKR
notes: humanized from G2-CH1
On to B6, for which, in test [1], the “IC50 … (GFRAL/RET)” value was 73 pM. In addition, in test [2], the Kd (as a rule, the constant that tells how readily two partners part at equilibrium) worked out at 0.0151 nM; the off-rate (koff) is 0.000221 s⁻¹; the kon was determined as 1.46e+07 M⁻¹ s⁻¹.
